Source: the Immune Epitope Database (IEDB)

What was measured:
HLA-A*01:01 = assay: IEDB peptide-MHC binding, purified MHC/direct/fluorescence; filed as Kd, often an IC50 or EC50 that approximates it; ≥ and ≤ were set here for values at or beyond the usual limits of such assays; conditions: source organism: Cryptosporidium parvum
HLA-A*02:01 [1] = assay: as above; conditions: source organism: Cryptosporidium parvum
HLA-A*03:01 [2] = assay: as above; conditions: source organism: Cryptosporidium parvum
HLA-A*11:01 [3] = assay: as above; conditions: source organism: Cryptosporidium parvum
HLA-A*26:01 = assay: as above; conditions: source organism: Cryptosporidium parvum Iowa II
HLA-A*26:03 [4] = assay: as above; conditions: source organism: Cryptosporidium parvum Iowa II
HLA-A*31:01 [5] = assay: as above; conditions: source organism: Cryptosporidium parvum
HLA-A*68:02 = assay: as above; conditions: source organism: Cryptosporidium parvum
HLA-A*69:01 = assay: as above; conditions: source organism: Cryptosporidium parvum
HLA-B*07:02 = assay: as above; conditions: source organism: Cryptosporidium parvum
HLA-B*08:02 [6] = assay: as above; conditions: source organism: Cryptosporidium parvum Iowa II
HLA-B*08:03 [7] = assay: as above; conditions: source organism: Cryptosporidium parvum Iowa II
HLA-B*15:01 = assay: as above; conditions: source organism: Cryptosporidium parvum
HLA-B*15:09 = assay: as above; conditions: source organism: Cryptosporidium parvum Iowa II
HLA-B*18:01 = assay: as above; conditions: source organism: Cryptosporidium parvum
HLA-B*27:02 = assay: as above; conditions: source organism: Cryptosporidium parvum Iowa II
HLA-B*27:05 = assay: as above; conditions: source organism: Cryptosporidium parvum
HLA-B*48:01 = assay: as above; conditions: source organism: Cryptosporidium parvum
HLA-B*57:01 [8] = assay: as above; conditions: source organism: Cryptosporidium parvum
HLA-B*58:01 [9] = assay: as above; conditions: source organism: Cryptosporidium parvum
HLA-B*73:01 = assay: as above
HLA-A*26:02 = assay: IEDB peptide-MHC binding, purified MHC/competitive/fluorescence; filed as Kd, often an IC50 or EC50 that approximates it; ≥ and ≤ were set here for values at or beyond the usual limits of such assays
HLA-B*15:17 = assay: as above; conditions: source organism: Cryptosporidium parvum Iowa II
HLA-B*39:01 = assay: as above; conditions: source organism: Cryptosporidium parvum Iowa II
HLA-B*15:02 = assay: IEDB peptide-MHC binding, purified MHC/direct/fluorescence; filed as Kd, often an IC50 or EC50 that approximates it; ≥ and ≤ were set here for values at or beyond the usual limits of such assays; conditions: source organism: Cryptosporidium parvum Iowa II
HLA-B*46:01 = assay: as above; conditions: source organism: Neogale vison
HLA-A*02:01 [10] = assay: IEDB peptide-MHC binding, purified MHC/competitive/radioactivity; filed as Kd, often an IC50 or EC50 that approximates it; ≥ and ≤ were set here for values at or beyond the usual limits of such assays; conditions: source organism: Homo sapiens
HLA-A*02:07 = assay: as above; conditions: source organism: Homo sapiens
HLA-A*29:02 = assay: as above; conditions: source organism: Homo sapiens
HLA-B*57:01 [11] = assay: as above; conditions: source organism: Homo sapiens
HLA-B*58:01 [12] = assay: as above; conditions: source organism: Homo sapiens
HLA-A*03:01 [13] = assay: IEDB peptide-MHC binding, purified MHC/competitive/fluorescence; filed as Kd, often an IC50 or EC50 that approximates it; ≥ and ≤ were set here for values at or beyond the usual limits of such assays; conditions: source organism: Human immunodeficiency virus 1
HLA-A*11:01 [14] = assay: as above; conditions: source organism: Human immunodeficiency virus 1
HLA-A*26:03 [15] = assay: as above; conditions: source organism: Human immunodeficiency virus 1
HLA-A*30:01 = assay: as above; conditions: source organism: Human immunodeficiency virus 1
HLA-A*31:01 [16] = assay: as above; conditions: source organism: Human immunodeficiency virus 1
HLA-B*08:02 [17] = assay: as above; conditions: source organism: Human immunodeficiency virus 1
HLA-B*08:03 [18] = assay: as above; conditions: source organism: Human immunodeficiency virus 1
HLA-C*06:02 = assay: IEDB peptide-MHC binding, purified MHC/direct/fluorescence; filed as Kd, often an IC50 or EC50 that approximates it; ≥ and ≤ were set here for values at or beyond the usual limits of such assays; conditions: source organism: Escherichia coli K-12
HLA-A*32:07 = assay: IEDB peptide-MHC binding, purified MHC/competitive/fluorescence; filed as Kd, often an IC50 or EC50 that approximates it; ≥ and ≤ were set here for values at or beyond the usual limits of such assays; conditions: source organism: Escherichia coli K-12
HLA-B*15:42 = assay: as above; conditions: source organism: Escherichia coli K-12
HLA-B*27:20 = assay: as above; conditions: source organism: Escherichia coli K-12
HLA-B*40:13 = assay: as above; conditions: source organism: Escherichia coli K-12
HLA-B*45:06 = assay: as above; conditions: source organism: Escherichia coli K-12
HLA-B*83:01 = assay: as above; conditions: source organism: Escherichia coli K-12

With RKWGLDFCY the Kd (HLA-A*01:01) was no less than 20 µM, the Kd (HLA-A*02:01 [1]) was no less than 20 µM and the Kd (HLA-A*03:01 [2]) was no less than 20 µM. The Kd (HLA-A*11:01 [3]) was no less than 20 µM, the Kd (HLA-A*26:01) was no less than 20 µM and the Kd (HLA-A*26:03 [4]) was no less than 20 µM. For the same sequence, the Kd (HLA-A*31:01 [5]) was no less than 20 µM, the Kd (HLA-A*68:02) was no less than 20 µM and the Kd (HLA-A*69:01) was no less than 20 µM. It also gave a Kd (HLA-B*07:02) of 9 µM, a Kd (HLA-B*08:02 [6]) of no less than 20 µM and a Kd (HLA-B*08:03 [7]) of no less than 20 µM. The Kd (HLA-B*15:01) was 2.08 µM, the Kd (HLA-B*15:09) was no less than 20 µM and the Kd (HLA-B*18:01) was no less than 20 µM. For the same sequence, the Kd (HLA-B*27:02) was 7 µM, the Kd (HLA-B*27:05) was 0.0555 µM and the Kd (HLA-B*48:01) was no less than 20 µM. The Kd (HLA-B*57:01 [8]) was no less than 20 µM, the Kd (HLA-B*58:01 [9]) was no less than 20 µM and the Kd (HLA-B*73:01; source organism: Cryptosporidium parvum) was no less than 20 µM. For the same sequence, the Kd (HLA-A*26:02; source organism: Cryptosporidium parvum Iowa II) was no less than 20 µM, the Kd (HLA-B*15:17) was no less than 20 µM and the Kd (HLA-B*39:01) was no less than 20 µM.

For KMKEIAEAY, the Kd (HLA-B*15:02) was 0.184 µM, the Kd (HLA-B*46:01) was 0.446 µM and the Kd (HLA-A*02:01 [10]) was no less than 78.1 µM. For the same sequence, the Kd (HLA-A*02:07) was no less than 53.4 µM, the Kd (HLA-A*29:02) was 0.0889 µM and the Kd (HLA-B*57:01 [11]) was 2.87 µM. The Kd (HLA-B*58:01 [12]) was 2.03 µM.

IATLYCVHQK gave a Kd (HLA-A*03:01 [13]) of no less than 20 µM, a Kd (HLA-A*11:01 [14]) of 1.71 µM and a Kd (HLA-A*26:02; source organism: Human immunodeficiency virus 1) of no less than 20 µM. It also gave a Kd (HLA-A*26:03 [15]) of no less than 20 µM, a Kd (HLA-A*30:01) of no less than 5 µM and a Kd (HLA-A*31:01 [16]) of no less than 20 µM. The Kd (HLA-B*08:02 [17]) was no less than 20 µM and the Kd (HLA-B*08:03 [18]) was no less than 20 µM.

In the case of RQWGMGFLL, the Kd (HLA-B*73:01; source organism: Escherichia coli O157:H7) is reported as 6 µM, the Kd (HLA-C*06:02) is reported as 1.71 µM and the Kd (HLA-A*32:07) is reported as 0.0012 µM. For the same sequence, the Kd (HLA-B*15:42) was no less than 5 µM, the Kd (HLA-B*27:20) was no more than 0.0001 µM and the Kd (HLA-B*40:13) was no more than 0.001 µM. For the same sequence, the Kd (HLA-B*45:06) was no less than 5 µM and the Kd (HLA-B*83:01) was no less than 5 µM.
